From patent publication US20250115654A1, “PHARMACEUTICAL COMPOSITION OF GLP-1 RECEPTOR AND GIP RECEPTOR DUAL AGONIST, AND USE THEREOF” (FUJIAN SHENGDI PHARMACEUTICAL CO., LTD., priority 2021, published 2025)
Where two headings read alike, the source gives them in different places. Numbered stars: 1 amine (or outer) side, 2 acyl side, 3 side chain; on linkers, the order of the positions; unused ones are H or OH. Square brackets hold non-standard residues; d marks the D form. Side chains are listed from the residue outwards. Peptide text beside a SMILES is read from it. * marks the point of attachment. C20 diacid = O=C(O)CCCCCCCCCCCCCCCCCCC(=O)*; γGlu = O=C(O)[C@H](CCC(=O)[*:2])N[*:1]; AEEA = NCCOCCOCC(=O)O; Aib = CC(C)(N)C(=O)O

T1: human GIPR (Homo sapiens, UniProt P48546)
T1 construct: expressed in transfected cells; host or cells: wild-type CHO-K1, transient transfection with hGIP receptor plasmid (Fugene HD)
T1 sequence (P48546 22-466): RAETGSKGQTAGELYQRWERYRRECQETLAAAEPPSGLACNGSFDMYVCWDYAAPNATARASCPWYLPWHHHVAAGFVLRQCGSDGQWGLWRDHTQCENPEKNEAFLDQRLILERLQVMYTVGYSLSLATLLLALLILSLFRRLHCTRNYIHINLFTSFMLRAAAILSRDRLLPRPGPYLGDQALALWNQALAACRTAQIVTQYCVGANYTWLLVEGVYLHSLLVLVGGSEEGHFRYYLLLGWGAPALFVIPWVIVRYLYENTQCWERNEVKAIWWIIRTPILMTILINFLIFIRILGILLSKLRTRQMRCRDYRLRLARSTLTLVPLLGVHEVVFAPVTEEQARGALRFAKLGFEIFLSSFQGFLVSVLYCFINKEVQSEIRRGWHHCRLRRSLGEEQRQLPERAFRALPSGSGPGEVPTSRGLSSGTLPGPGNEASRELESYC

T2: human glucose-dependent insulinotropic polypeptide receptor (GIPR) (human, UniProt P48546)
T2 sequence: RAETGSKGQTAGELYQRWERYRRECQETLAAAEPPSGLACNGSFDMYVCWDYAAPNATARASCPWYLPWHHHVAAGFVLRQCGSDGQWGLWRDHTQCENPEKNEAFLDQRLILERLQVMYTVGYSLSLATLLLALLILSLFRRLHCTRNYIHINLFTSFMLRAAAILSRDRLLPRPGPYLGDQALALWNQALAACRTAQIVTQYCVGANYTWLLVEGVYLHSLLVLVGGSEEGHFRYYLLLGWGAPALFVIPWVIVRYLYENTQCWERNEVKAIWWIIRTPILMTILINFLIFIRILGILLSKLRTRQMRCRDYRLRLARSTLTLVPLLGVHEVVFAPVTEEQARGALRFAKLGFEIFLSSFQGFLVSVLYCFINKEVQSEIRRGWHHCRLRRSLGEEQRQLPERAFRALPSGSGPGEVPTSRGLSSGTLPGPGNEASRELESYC


How the values were obtained:
human GIPR = target: T1, human GIPR; experiment: Agonist activity against GIPR, cAMP HTRF in CHO-K1 cells transiently transfected with hGIP receptor; format: cell-based
Experimental: Wild-type CHO-K1 cells were collected, and the cell suspension was adjusted to an appropriate density, seeded in a 6-well plate at 2 mL/well, and placed in an incubator at 37° C. with 5% CO2 for adherence culture overnight.

[1] = Stability of compounds in human plasma (LC-MS); format: in vitro ADME; details: human, read-out: Relative content of compounds retained in plasma (%)
Experimental: 5 μL of each of samples at concentrations of 20 ng/mL, 50 ng/mL, 100 ng/mL, 200 ng/mL, 500 ng/mL, 1000 ng/mL, 2000 ng/mL, 5000 ng/mL, and 10000 ng/mL was added to 45 L of human plasma. The content of the compounds in the samples was determined by the LC-MS method and a standard curve was formed. 5 μL of a 1 mg/mL polypeptide solution was added to 45 μL of human plasma. […] With the content at 0 min as the standard (100%), the relative content of the retained compounds in the samples at other time points was calculated.

[2] = target: human glucagon-like peptide-1 receptor (GLP-1R) (human, UniProt P43220); experiment: cell-based or functional assay
[3] = target: T2, human glucose-dependent insulinotropic …; experiment: cell-based or functional assay
[4] = Table 6 run, read-out: Activity against human GIPR (EC50 nM)

Molecule	Activity against human GLP-1R (EC50 nM); cAMP, HTRF [2]	Activity against human GIPR (EC50 nM); cAMP, HTRF [3]	also measured
CC[C@H](C)[C@H](NC(=O)[C@H](CCCCNC(=O)COCCOCCNC(=O)COCCOCCNC(=O)CC[C@H](NC(=O)CCCCCCCCCCCCCCCCCCC(=O)O)C(=O)O)NC(=O)[C@H](CCC(=O)O)NC(=O)[C@H](CC(C)C)NC(=O)[C@H](Cc1ccc(O)cc1)NC(=O)[C@@H](NC(=O)[C@H](CO)NC(=O)[C@H](Cc1ccc(O)cc1)NC(=O)[C@H](CC(=O)O)NC(=O)[C@H](CO)NC(=O)[C@@H](NC(=O)[C@H](Cc1ccccc1)NC(=O)[C@@H](NC(=O)CNC(=O)[C@H](CCC(=O)O)NC(=O)C(C)(C)NC(=O)[C@@H](N)Cc1ccc(O)cc1)[C@@H](C)O)[C@@H](C)O)[C@@H](C)CC)C(=O)N[C@@H](C)C(=O)N[C@@H](C)C(=O)N[C@@H](CCC(N)=O)C(=O)N[C@@H](CCC(=O)O)C(=O)N[C@@H](Cc1ccccc1)C(=O)N[C@H](C(=O)N[C@@H](CC(N)=O)C(=O)N[C@@H](Cc1c[nH]c2ccccc12)C(=O)N[C@@H](CC(C)C)C(=O)N[C@H](C(=O)N[C@@H](C)C(=O)NCC(=O)NCC(=O)N1CCC[C@H]1C(=O)N[C@@H](CO)C(=O)N[C@@H](CO)C(=O)NCC(=O)N[C@@H](C)C(=O)N1CCC[C@H]1C(=O)N1CCC[C@H]1C(=O)N1CCC[C@H]1C(=O)N[C@@H](CO)C(N)=O)[C@@H](C)CC)[C@@H](C)CC [Compound 10] (H-Y[Aib]EGTFTSDYSIYLEK([AEEA-AEEA-γGlu-C20 diacid])IAAQEFINWLIAGGPSSGAPPPS-NH2)	–	–	EC50 (human GIPR; [4]): 0.056 nM
CC[C@H](C)[C@H](NC(=O)[C@H](CCCNC(=N)N)NC(=O)[C@H](CCC(=O)O)NC(=O)[C@H](CCCCNC(=O)COCCOCCNC(=O)COCCOCCNC(=O)CC[C@H](NC(=O)CCCCCCCCCCCCCCCCCCC(=O)O)C(=O)O)NC(=O)[C@H](Cc1ccc(O)cc1)NC(=O)[C@@H](NC(=O)[C@H](CO)NC(=O)[C@H](Cc1ccc(O)cc1)NC(=O)[C@H](CC(=O)O)NC(=O)[C@H](CO)NC(=O)[C@@H](NC(=O)[C@H](Cc1ccccc1)NC(=O)[C@@H](NC(=O)CNC(=O)[C@H](CCC(=O)O)NC(=O)C(C)(C)NC(=O)[C@@H](N)Cc1ccc(O)cc1)[C@@H](C)O)[C@@H](C)O)[C@@H](C)CC)C(=O)N[C@@H](C)C(=O)N[C@@H](C)C(=O)N[C@@H](CCC(N)=O)C(=O)N[C@@H](CCC(=O)O)C(=O)N[C@@H](Cc1ccccc1)C(=O)N[C@H](C(=O)N[C@@H](CC(N)=O)C(=O)N[C@@H](Cc1c[nH]c2ccccc12)C(=O)N[C@@H](CC(C)C)C(=O)N[C@H](C(=O)N[C@@H](C)C(=O)NCC(=O)NCC(=O)N1CCC[C@H]1C(=O)N[C@@H](CO)C(=O)N[C@@H](CO)C(=O)NCC(=O)N[C@@H](C)C(=O)N1CCC[C@H]1C(=O)N1CCC[C@H]1C(=O)N1CCC[C@H]1C(=O)N[C@@H](CO)C(N)=O)[C@@H](C)CC)C(C)C [Compound 13] (H-Y[Aib]EGTFTSDYSIYK([AEEA-AEEA-γGlu-C20 diacid])ERIAAQEFVNWLIAGGPSSGAPPPS-NH2)	–	–	EC50 (human GIPR; [4]): 0.13 nM
CC[C@H](C)[C@H](NC(=O)[C@H](CCCNC(=N)N)NC(=O)[C@H](CCC(=O)O)NC(=O)[C@H](CCCCNC(=O)COCCOCCNC(=O)COCCOCCNC(=O)CC[C@H](NC(=O)CCCCCCCCCCCCCCCCCCC(=O)O)C(=O)O)NC(=O)[C@H](Cc1ccc(O)cc1)NC(=O)[C@@H](NC(=O)[C@H](CO)NC(=O)[C@H](Cc1ccc(O)cc1)NC(=O)[C@H](CC(=O)O)NC(=O)[C@H](CO)NC(=O)[C@@H](NC(=O)[C@H](Cc1ccccc1)NC(=O)[C@@H](NC(=O)CNC(=O)[C@H](CCC(=O)O)NC(=O)C(C)(C)NC(=O)[C@@H](N)Cc1ccc(O)cc1)[C@@H](C)O)[C@@H](C)O)[C@@H](C)CC)C(=O)N[C@@H](C)C(=O)N[C@@H](C)C(=O)N[C@@H](CCC(N)=O)C(=O)N[C@@H](CCC(=O)O)C(=O)N[C@@H](Cc1ccccc1)C(=O)N[C@H](C(=O)N[C@@H](CC(N)=O)C(=O)N[C@@H](Cc1c[nH]c2ccccc12)C(=O)N[C@@H](CC(C)C)C(=O)N[C@@H](CC(C)C)C(=O)N[C@@H](C)C(=O)NCC(=O)NCC(=O)N1CCC[C@H]1C(=O)N[C@@H](CO)C(=O)N[C@@H](CO)C(=O)NCC(=O)N[C@@H](C)C(=O)N1CCC[C@H]1C(=O)N1CCC[C@H]1C(=O)N1CCC[C@H]1C(=O)N[C@@H](CO)C(N)=O)C(C)C [Compound 17] (H-Y[Aib]EGTFTSDYSIYK([AEEA-AEEA-γGlu-C20 diacid])ERIAAQEFVNWLLAGGPSSGAPPPS-NH2)	–	–	EC50 (human GIPR; [4]): 0.11 nM
CC[C@H](C)[C@H](NC(=O)[C@H](CC(C)C)NC(=O)[C@H](Cc1c[nH]c2ccccc12)NC(=O)[C@H](CCC(N)=O)NC(=O)[C@@H](NC(=O)[C@H](Cc1ccccc1)NC(=O)[C@H](C)NC(=O)[C@H](CCCCNC(=O)COCCOCCNC(=O)COCCOCCNC(=O)CC[C@H](NC(=O)CCCCCCCCCCCCCCCCCCC(=O)O)C(=O)O)NC(=O)[C@H](CCC(N)=O)NC(=O)[C@H](C)NC(=O)[C@@H](NC(=O)[C@H](CCCCN)NC(=O)[C@H](CC(=O)O)NC(=O)[C@H](CC(C)C)NC(=O)C(C)(C)NC(=O)[C@@H](NC(=O)[C@H](CO)NC(=O)[C@H](Cc1ccc(O)cc1)NC(=O)[C@H](CC(=O)O)NC(=O)[C@H](CO)NC(=O)[C@@H](NC(=O)[C@H](Cc1ccccc1)NC(=O)[C@@H](NC(=O)CNC(=O)[C@H](CCC(=O)O)NC(=O)C(C)(C)NC(=O)[C@@H](N)Cc1ccc(O)cc1)[C@@H](C)O)[C@@H](C)O)[C@@H](C)CC)[C@@H](C)CC)C(C)C)C(=O)N[C@@H](C)C(=O)NCC(=O)NCC(=O)N1CCC[C@H]1C(=O)N[C@@H](CO)C(=O)N[C@@H](CO)C(=O)NCC(=O)N[C@@H](C)C(=O)N1CCC[C@H]1C(=O)N1CCC[C@H]1C(=O)N1CCC[C@H]1C(=O)N[C@@H](CO)C(N)=O [LY3298176, reference compound]	–	–	EC50 (human GIPR): 0.031 nM; remaining at 1 h, 0.1 mg/mL ([1]; 60 min): 115%; remaining at 2 h, 0.1 mg/mL ([1]; 120 min): 118%; remaining at 4 h, 0.1 mg/mL ([1]; 240 min): 113%
H-Y[Aib]EGTFTSDYSIYK([AEEA-AEEA-γGlu-C20‑OH])ERIAAQEFINWLIAGGPSSGAPPPS-NH2 [compound 15# H-YAibEGTFTSDYSIYK(OEG-OEG-yGlu-C20-OH)ERIAAQEFINWLIAGGPSSGAPPPS-NH2]	0.015 nM	0.23 nM	–
H-Y[Aib]EGTFTSDYSIYK([AEEA-AEEA-γGlu-C20‑OH])EKIAAQEFVNWLIAGGPSSGAPPPS-NH2 [compound 12# H-YAibEGTFTSDYSIYK(OEG-OEG-yGlu-C20-OH)EKIAAQEFVNWLIAGGPSSGAPPPS-NH2]	0.03 nM	0.17 nM	–
H-Y[Aib]EGTFTSDYSIYLEK([AEEA-AEEA-γGlu-C20‑OH])IAAQEFVNWLIAGGPSSGAPPPS-NH2 [compound 9# H-YAibEGTFTSDYSIYLEK(OEG-OEG-yGlu-C20-OH)IAAQEFVNWLIAGGPSSGAPPPS-NH2]	0.049 nM	0.04 nM	–
H-Y[Aib]EGTFTSDYSIYK([AEEA-AEEA-γGlu-C20‑OH])EKIAAQEFINWLLAGGPSSGAPPPS-NH2 [compound 16# H-YAibEGTFTSDYSIYK(OEG-OEG-yGlu-C20-OH)EKIAAQEFINWLLAGGPSSGAPPPS-NH2]	0.029 nM	0.095 nM	–
H-Y[Aib]EGTFTSDYSIYLEK([AEEA-AEEA-γGlu-C20‑OH])IAAQEFINWLIAGGPSSGAPPPS-NH2 [compound 10# H-YAibEGTFTSDYSIYLEK(OEG-OEG-yGlu-C20-OH)IAAQEFINWLIAGGPSSGAPPPS-NH2]	0.065 nM	0.056 nM	–
H-Y[Aib]EGTFTSDYSIYK([AEEA-AEEA-γGlu-C20‑OH])ERIAAQEFVNWLLAGGPSSGAPPPS-NH2 [compound 17# H-YAibEGTFTSDYSIYK(OEG-OEG-yGlu-C20-OH)ERIAAQEFVNWLLAGGPSSGAPPPS-NH2]	0.022 nM	0.11 nM	–
H-Y[Aib]EGTFTSDYSIYK([AEEA-AEEA-γGlu-C20‑OH])EKIAAQEFINWLIAGGPSSGAPPPS-NH2 [compound 14# H-YAibEGTFTSDYSIYK(OEG-OEG-yGlu-C20-OH)EKIAAQEFINWLIAGGPSSGAPPPS-NH2]	0.013 nM	0.13 nM	–
H-Y[Aib]EGTFTSDYSIYK([AEEA-AEEA-γGlu-C20‑OH])ERIAAQEFVNWLIAGGPSSGAPPPS-NH2 [compound 13# H-YAibEGTFTSDYSIYK(OEG-OEG-yGlu-C20-OH)ERIAAQEFVNWLIAGGPSSGAPPPS-NH2]	0.017 nM	0.13 nM	–
H-Y[Aib]EGTFTSDYSIYK([AEEA-AEEA-γGlu-C20‑OH])EKIAAQEFVNWLLAGGPSSGAPPPS-NH2 [compound 18# H-YAibEGTFTSDYSIYK(OEG-OEG-yGlu-C20-OH)EKIAAQEFVNWLLAGGPSSGAPPPS-NH2]	0.013 nM	0.06 nM	–
